Results taken from patent US20030124529.

B1: recombinant wild-type PAPP-A2 (pregnancy-associated plasma protein-A2), in medium of 293T cells transfected with pPA2 (protein)
chain: SPPEESNQNGGEGSYREAETFNSQVGLPILYFSGRRERLLLRPEVLAEIPREAFTVEAWVKPEGGQNNPAIIAGVFDNCSHTVSDKGWALGIRSGKDKGKRDARFFFSLCTDRVKKATILISHSRYQPGTWTHVAATYDGRHMALYVDGTQVASSLDQSGPLNSPFMASCRSLLLGGDSSEDGHYFRGHLGTLVFWSTALPQSHFQHSSQHSSGEEEATDLVLTASFEPVNTEWVPFRDEKYPRLEVLQGFEPEPEILSPLQPPLCGQTVCDNVELISQYNGYWPLRGEKVIRYQVVNICDDEGLNPIVSEEQIRLQHEALNEAFSRYNISWQLSVHQVHNSTLRHRVVLVNCEPSKIGNDHCDPECEHPLTGYDGGDCRLQGRCYSWNRRDGLCHVECNNMLNDFDDGDCCDPQVADVRKTCFDPDSPKRAYMSVKELKEALQLNSTHFLNIYFASSVREDLAGAATWPWDKDAVTHLGGIVLSPAYYGMPGHTDTMIHEVGHVLGLYHVFKGVSERESCNDPCKETVPSMETGDLCADTAPTPKSELCREPEPTSDTCGFTRFPGAPFTNYMSYTDDNCTDNFTPNQVARMHCYLDLVYQQWTESRKPTPIPIPPMVIGQTNKSLTIHWLPPISGVVYDRASGSLCGACTEDGTFRQYVHTASSRRVCDSSGYWTPEEAVGPPDVDQPCEPSLQAWSPEVHLYHMNMTVPCPTEGCSLELLFQHPVQADTLTLWVTSFFMESSQVLFDTEILLENKESVHLGPLDTFCDIPLTIKLHVDGKVSGVKVYTFDERIEIDAALLTSQPHSPLCSGCRPVRYQVLRDPPFASGLPVVVTHSHRKFTDVEVTPGQMYQYQVLAEAGGELGEASPPLNHIHGAPYCGDGKVSERLGEECDDGDLVSGDGCSKVCELEEGFNCVGEPSLCYMYEGDGICEPFERKTSIVDCGIYTPKGYLDQWATRAYSSHEDKKKCPVSLVTGEPHSLICTSYHPDLPNHRPLTGWFPCVASENETQDDRSEQPEGSLKKEDEVWLKVCFNRPGEARAIFIFLTTDGLVPGEHQQPTVTLYLTDVRGSNHSLGTYGLSCQHNPLIINVTHHQNVLFHHTTSVLLNFSSPRVGISAVALRTSSRIGLSAPSNCISEDEGQNHQGQSCIHRPCGKQDSCPSLLLDHADVVNCTSIGPGLMKCAITCQRGFALQASSGQYIRPMQKEILLTCSSGHWDQNVSCLPVDCGVPDPSLVNYANFSCSEGTKFLKRCSISCVPPAKLQGLSPWLTCLEDGLWSLPEVYCKLECDAPPIILNANLLLPHCLQDNHDVGTICKYECKPGYYVAESAEGKVRNKLLKIQCLEGGIWEQGSCIPVVCEPPPPVFEGMYECTNGFSLDSQCVLNCNQEREKLPILCTKEGLWTQEFKLCENLQGECPPPPSELNSVEYKCEQGYGIGAVCSPLCVIPPSDPVMLPENITADTLEHWMEPVKVQSIVCTGRRQWHPDPVLVHCIQSCEPFQADGWCDTINNRAYCHYDGGDCCSSTLSSKKVIPFAADCDLDECTCRDPKAEENQ
B2: purified PAPP-A2 (protein)
chain: B1 chain

How the values were obtained:
[1] = target: C-terminally c-myc tagged rIGFBP-5 (human IGFBP-5 followed by a c-myc and His tag, expressed in 293T cells), P24593
Sequence of C-terminally c-myc tagged rIGFBP-5 (human IGFBP-5 followed by a c-myc and His tag, expressed in 293T cells), P24593 (P24593 other isoform, or with tags, fused parts or gaps): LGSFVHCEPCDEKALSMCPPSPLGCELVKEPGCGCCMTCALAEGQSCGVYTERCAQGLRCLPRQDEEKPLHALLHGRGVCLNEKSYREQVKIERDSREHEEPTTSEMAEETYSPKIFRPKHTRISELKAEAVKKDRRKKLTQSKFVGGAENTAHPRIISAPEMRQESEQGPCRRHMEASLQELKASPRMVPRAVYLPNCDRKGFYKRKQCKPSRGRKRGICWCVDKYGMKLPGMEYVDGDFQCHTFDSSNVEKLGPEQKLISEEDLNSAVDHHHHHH

[2] = target: rIGFBP-5 (gift of D. Andress), P24593
Sequence of rIGFBP-5 (gift of D. Andress), P24593 (P24593 21-272): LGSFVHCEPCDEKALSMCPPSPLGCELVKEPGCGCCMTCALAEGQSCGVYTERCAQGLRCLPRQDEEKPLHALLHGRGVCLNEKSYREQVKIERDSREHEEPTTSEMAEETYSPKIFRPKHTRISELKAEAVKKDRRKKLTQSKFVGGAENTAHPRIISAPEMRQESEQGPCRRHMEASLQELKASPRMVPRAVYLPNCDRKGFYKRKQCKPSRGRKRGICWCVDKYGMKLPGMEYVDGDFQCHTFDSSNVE

[3] = target: rIGFBP-3 (gift of D. Powell), P17936
Sequence of rIGFBP-3 (gift of D. Powell), P17936 (P17936 28-291): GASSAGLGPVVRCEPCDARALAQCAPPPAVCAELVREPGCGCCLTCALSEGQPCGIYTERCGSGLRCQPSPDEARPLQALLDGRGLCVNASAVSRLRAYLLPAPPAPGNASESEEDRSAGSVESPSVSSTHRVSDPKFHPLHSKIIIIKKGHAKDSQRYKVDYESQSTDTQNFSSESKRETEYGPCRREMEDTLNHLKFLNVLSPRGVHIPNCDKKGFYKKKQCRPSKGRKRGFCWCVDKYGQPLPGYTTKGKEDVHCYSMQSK

| Protein | proteolytic activity, Western blotting using anti-c-myc [1] | proteolytic cleavage, ligand blotting with radiolabeled IGF-II [2] | proteolytic cleavage, ligand blotting with radiolabeled IGF-II [3] | proteolytic cleavage, SDS-PAGE and N-terminal sequence analysis [1] |
| --- | --- | --- | --- | --- |
| B1 | In the absence of inhibitors, wild-type PAPP-A2 degraded all rIGFBP-5 (lane 3) | Of the six binding proteins, IGFBP-5 showed complete cleavage | IGFBP-3 was partially degraded | – |
| B2 | – | – | – | PAPP-A2 cleaves IGFBP-5 at one site, between Ser-143 and Lys-144 |
